The nanobody polyreactivity screen of Harvey et al. (2022)

Experiment: yeast display, Sf9 membrane polyspecificity reagent, FACS + sequencing; frameworks hold sequencing errors
Method in brief: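 Galactose-induced (36–48 hours) yeast carrying a synthetic nanobody display library were exposed to 10% biotinylated, detergent-solubilized Sf9 membrane reagent at 4 °C for 1 hour. FACS followed streptavidin microbead enrichment, using low and high (top ~1%) gates for expression (anti-HA) and reagent binding (streptavidin). Colony PCR, MiSeq 2 × 250 sequencing and CDR-length filtering followed. Labels for polyreactivity reflect the gate of origin.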

Sequence | polyreactivity (PSR sort gate)
QVQLVESGGGLVQAGGRLRLSCAASGSTFGSNVMGWYRQAPGKERELVASISSGGRTKYADSVKGRFTISRDNAKNTVYLQMNSLKPEDTAVYYCNTRLRKKNSRDYDYWGQGTQVTVSS | low polyreactivity
QVQLVESGGGLVQAGGRLRLSCAASGSTFGWYARGWYRQAPGKERELVATISSGGSTYYADSVKGRFTISRDNAKNTVSLQMNSLKPEDTAVYYCAARIGTGVLPGRGANSHMDFWGHGTQVTVSS | low polyreactivity
QVQLVESGGGLVQAGGRLRLSCAASGSTFHHNVMGWYRQAPGKEWELVAAITSSGGSTYYADSVKGRFTISRDNAKNTVYLQMNSLKPEDTAVYYCAKDKLIFYRVGSDYWGQGTQVNVSS | low polyreactivity
QVQLVESGGGLVQAGGRLRLSCAASGSTFRGYAMGWYRQAPGKEREFVAAITYTGSSTTYADSVIGRFTISRDNAKTTVYLQMNSLKPEYTADFYCAARYVASRIYKRYYWGQGTQVTVSS | high polyreactivity
QVQLVESGGGLVQAGGRLRLSCAASGSTFRVYAMGWYRQAPGKERELFAAIRSGGGTNYADSVKGRFTISRDNAKNTVYLQMNSLKPEDTAVYYCAREAATDISPGYDYWGQGTQVTVSS | low polyreactivity
QVQLVESGGGLVQAGGRLRLSCAASGSTFSLNTMGWYRQAPGKERELFAAIRWRSGSTYYADSVKGRFTISRDNAKNTVYLHKNRLKPEDNAVYYCAVTARVTFLLRDGGRAEFDYWGQGTQVTVSS | low polyreactivity
QVQLVESGGGLVQAGGRLRLSCAASGSTFSRNTMGWYRQAPGKESELVAAISKSGGRTYYADSVKGRFTISRDNAKNTVYLQMNSLKPEDTAVYYCNGVKLLGTRGYGYLGQGTQVTVSS | high polyreactivity
QVQLVESGGGLVQAGGRLRLSCAASGSTFSYYAMGWYRHAPGKERELVAAITSSGSRTYYADSVKGRFTISRDKAKNTVYLQMNSLKPEDTAVYYCAAVYVYRTSYLISLYDYGYWGQGTQVTVSS | high polyreactivity
QVQLVESGGGLVQAGGRLRLSCAASGSTFWSKVMGWYRQAPGKERELVSAISYGGVTTSYADSVKGRFTISRDNAKNTVYLQMTSLKPEDTAVYYCATDYVGYYFYESDYWGQGTQVTVSS | low polyreactivity
QVQLVESGGGLVQAGGRLRLSCAASGSTFYLNAMGWYRQAPGKERELVAAISSGGRTYYADSVKGRFTISRDNAKNTVYLQMTSLKPEDTAVYYCNAVRYLRGAYNYWGQGTQVTVSS | high polyreactivity
QVQLVESGGGLVQAGGRLRLSCAASGSTLSYYAMGWYIQAPGKERELVAAISFSGGSTYYADSVKGRFTISRDNAKNTVYLQMNSLKPEDTAVYYCNAPPLYRDEYWGQGTQVTVSS | high polyreactivity
QVQLVESGGGLVQAGGRLRLSCAASGSTYYNAMGWYRQAPGKERELVAAIRFRSGSTYYADSVKGRFTISRDNAKNTVYLQMNSLKPEDTAVYYCAAYCRRSYVDSYDIRFDYWGQGTQVTVSS | high polyreactivity
QVQLVESGGGLVQAGGRLRLSCAASGTIFYWNAMVWYRQATGKERELVAAINSGDSTNYADSVKGRFTISRDNAKNTVYFQMYSLKPEDTAVYYCAASIYAALNGGPGYDYWGQGTQVTVSS | low polyreactivity
QVQLVESGGGLVQAGGRLRLSCAASGTTIVYYAMGWSRQAPGKEREMVAAISWSGTRTYYADSVKGRFTISRDTGKNSVYLQMNSLIPEDTAVYYCAAKGGYSTGRPTFTIFNYWGQGTQVTVSS | high polyreactivity
QVQLVESGGGLVQAGGRLRLSCAASGYTFRRNAMGWYRQAPGKERELVAAITWRGTSTYYADSVKGRFTISRDNAKNTVYLQMNSLKPEDTAVYYCAARFYSGPGGYTMYYWGQGTQVTVSS | high polyreactivity
QVQLVESGGGLVQAGGRLRLSCAATGRTFSYNAMGWYRQAPGKERELVAAITTNSGSRTYYADSVKGRFTISRDNAKNTVYLQMNSLKPEDTAVYYCAADGPVVSGYYWGQGTQVTVSS | high polyreactivity
QVQLVESGGGLVQAGGRLRLSCAGSGSTSYGYAMGWYRQAPGKERELVAAITSGGRTYYADSVKGRFTISRDNAKNTVYFQMNSLKPEDTAVYYCAAVRALRKVRDYYYWGQGTQVTVSS | high polyreactivity
QVQLVESGGGLVQAGGRLRLSCAPSGSTFTANDMGWYRQAPVKERELVAAISISGTRTYYADSVKGRFTISRDNAKNTVYLQMNSLKPEDTAVYYGNKATSYFTVRGYDYWGQGTQVTVSS | high polyreactivity
QVQLVESGGGLVQAGGRLRLSCEASGNIFGYYAMGWSRQAPGKERELVAAITRSGSSTYYADSVKGRFTISRDNAKNNVFLQMNSLKPEDTAVYYCSADNFYQAYGYWGQGTQVTVSS | low polyreactivity
QVQLVESGGGLVQAGGRLRLSSAASGFTFNKYGMGWYRQAPRKERELVAAISGSGGSTRYADSVKGRFTISRDNAKNTVYLLMNSLKPEDTAVYFCAKRSQTRYYYWGQGTQVTVSS | high polyreactivity
QVQLVESGGGLVQAGGRLRLTCAASGRNYNGNAMGRYRQAPGTERELVAGIDSDGSTNYADSVKGRFTISRDNAKNTVYLQMNSLKPDDTAGYYCAAVQGYRFYEYYYWGQGTQVTVSS | low polyreactivity
QVQLVESGGGLVQAGGRLRLTCAASGSIFFYAMGWYRQAPGKERELVAGITTSGGSTYYADSVKGRFTISRDNAKNTVYLQMYSLKPEYTAVYYCAADGSRAGQEGNDYWGQGTQVTVSS | low polyreactivity

Sequence | polyreactivity (PSR sort gate)
QVQLVESGGGLVQAGGRLRLTCAASGSTFFTNAMGWYRQAPGKERELVAAITINDGSTFYADSVKGRFTISRDNAKKTVYLQMNSLKPEDTAVYYCNADGVDLYDFWGQGTQVTVSS | low polyreactivity
QVQLVESGGGLVQAGGRLRLTCAASGSTFGDYAMGWYRQAPGKERELVAAITYSGGRTYYADSVKGRFTISRDNAKNTGDLQMNRLKPEDTAVYYCAARVRYPSRRGNYDYWGEGTQVTVSS | high polyreactivity
QVQLVESGGGLVQAGGRLRLTCAASGSTFPTYAMGWYRQAPGKERELVAAISTRGGSTYYADSVKGRFTISRDNAKNTVYLQMNSLKPEDTAVYYCATGKSLGRYHYEYWGQGSQVTVSS | low polyreactivity
QVQLVESGGGLVQAGGRLSLSCAASGSTLWGYAMGWYRQAPGKERELVATINQSAGSTYYADSVKGRFTISRDHAKNSVYLQMHSLKPEVTAVYYCAAEALVQFSYDYWGQGTQVTVSS | low polyreactivity
QVQLVESGGGLVQAGGRVRLSCAASVSTFKQYSMGWYRQATGKERELVAAITRGGRTNYAYSVKGRFTISRDNAKNTVSLQMNSLKQEDTAVYYCAKLLSGYGRWWYDYWGQGTQVTLSS | high polyreactivity
QVQLVESGGGLVQAGGSDRLSCAASGRTFDRYAMGWYRQAPGKERELVAAISRGGSTNYADSVKGRFTISRDNAKNTVYLQMNSLKPEDTAVYYCAARVSFLHLRRAYDYWGQGSQVTVSS | high polyreactivity
QVQLVESGGGLVQAGGSFRLSCPASGGPVDTYVMGCYRQARGKERELVAVITRGASTYYADSVKGRFTITRDNAKNTVYLQNNRLKPEDTAVYYCAAAFYSPDFYRFWYSFDYWGQGTQVTVSS | low polyreactivity
QVQLVESGGGLVQAGGSHPLSCAASGSIFDLYDMGWYRQAPGKERELVAAISLIGGSTSYADSVKGRFTISRDNAKNSVYLQMNSLKPEDTAVYYCAVDSRPYLRDYWGQGTQVTISS | low polyreactivity
QVQLVESGGGLVQAGGSHRFSCAASGRIIYTNAMGWYRQAPGKEREFVAVISWGGDTTYYADSVKGRFTISRDNAKNTVYLQMNSLKPEDTAVYYCNAEWGPTYEIYDSWGPGTQVTVSS | low polyreactivity
QVQLVESGGGLVQAGGSHRLSCAASGFIFGINVMGWYRQAPGKERELVAAISGSGSSTYYADSVKGRFTISRDNAKNTVYLQMNSLKPEDTAVYYCAARSVSTLRFTSRKLRYDYWGQGTQVTVSS | high polyreactivity
QVQLVESGGGLVQAGGSHRLSCAASGFIFYSNAMGWYRQAPGKERELVAAITSGGSTYYADSVKGRFTISRDNAKNTVYLQMNSLKPEDTAVYYCNKARRWRGYDYWGQGTLVTVSS | high polyreactivity
QVQLVESGGGLVQAGGSHRLSCAASGFTFRHYTMGWYRQAPGKERELVAVITRSGGSTYYADSVKGRFTISRDNAKNTVYLQMNSLKPEDTAVYYCAVGRTYNADGYWGQGTQVTVSS | high polyreactivity
QVQLVESGGGLVQAGGSHRLSCAASGFTFYIYAMGWYRQAPGKERELVAAINIGGGGTYYADSVKGRFTISRDNAKNTVYLLMHSLKPEDTAVYDCAAVYCYDYYCTEYDYWGQGTQVNVSS | low polyreactivity
QVQLVESGGGLVQAGGSHRLSCAASGIIFYRNAMGWYRQAPGKERELVATITVSSGSTYYADSVKGRFTISRDNAKNTVYLLMYSLKPEDTAVYYCNARYYYFSVRYKYDFNYWGQGTQVTVSS | high polyreactivity
QVQLVESGGGLVQAGGSHRLSCAASGITFYGYARGWYRQAPGKERELVAAISGNGGRTYYADSVKGRFTISRDYAKNTVYLQMNSLKPEDTAVYYCNVKVRSRRTGDRYDYWGQGTQVTVSS | high polyreactivity
QVQLVESGGGLVQAGGSHRLSCAASGLTFTDNAMGRYRQAPGKERELVAAMSRCGGTTYYAASVKGRFTISRDNAKNTVYLQMNSLKPEDTAVYYCNADTYRRLYGNYDYWGQGTQLTVSS | high polyreactivity
QVQLVESGGGLVQAGGSHRLSCAASGRIFALNTMRWYRQAPGKEREFVAAITTSGGSTYADSVKGRFTISRDNAKNTVYLQMNSLKPEDTAVYYCNKEYYHKWAPTYDYWGQGTEVTVSS | low polyreactivity
QVQLVESGGGLVQAGGSHRLSCAASGRIFDDNALGWYCQAPGKERELVAAITGGGRTNYADSVKGRFTISRDNAKNTVYLQMNSLKPEDTAVSYCAAATYGWVIYIYDYWGQGTQVNVSS | low polyreactivity
QVQLVESGGGLVQAGGSHRLSCAASGRIFGYNAMGWYRQAPGKEWELVAAISSPGNTYYADSVKGRFTISRDNAKNTVYLQMNSLKPEDTAVYYCARSWLYSQRRYDYWGQGTQVTVSS | low polyreactivity
QVQLVESGGGLVQAGGSHRLSCAASGRIFNWYAMGWYRHAPGKDRALVARISSGDITSYADSVKGRFSISRDNAKNTVYLQMNILKPEDTAVYYCAARQWFLYDYWGQGTQVTVSS | low polyreactivity
QVQLVESGGGLVQAGGSHRLSCAASGRIFPSYAMGWYRQAPGKQRELVAAISKYGGRTYYADSVKGRFTISRDNAKNTVYLQMNSLKPEDTEVYYCAADGFRYYSWTRFSYYSGYDYWGQGSQVTVSS | high polyreactivity
